Measured values published in US20250206799A1 (KEROS THERAPEUTICS, published 2025).

B1: extracellular ActRIIA (SEQ ID NO: 16) fused to the N-terminus of hFc through a GGG linker (Fc fusion)
chain: AILGRSETQECLFFNANWEKDRTNQTGVEPCYGDKDKRRHCFATWKNISGSIEIVKQGCWLDDINCYDRTDCVEKKDSPEVYFCCCEGNMCNEKFSYFPEMEVTQPTSGGG
notes: also called ActRIIA-Fc; not shown: hFc
B2: extracellular ActRIIB variant ActRIIB 2.01 (SEQ ID NO: 4) fused to the N-terminus of hFc through a GGG linker (Fc fusion)
chain: GRGEAETRECIYYNANWELERTNQSGLERCEGEQDKRLHCYASWRNSSGTIELVKKGCWLDDFNCYDRQECVAKKDSPEVYFCCCEGNFCNERFTHLPEAGGPEVTYEPPPTAPTGGG
notes: also called ActRIIB 2.01 variant; not shown: hFc
B3: extracellular ActRIIB variant ActRIIB 2.07 (SEQ ID NO: 10) fused to the N-terminus of hFc through a GGG linker (Fc fusion)
chain: GRGEAETRECIFYNANWEKDRTNQSGLERCEGEQDKRLHCYASWRNSSGTIELVKKGCWLDDFNCYDRQECVAKKDSPEVYFCCCEGNFCNERFTHLPEAGGPEVTYEPPPTAPTGGG
notes: also called ActRIIB 2.07 variant; not shown: hFc
B4: extracellular ActRIIB variant ActRIIB 2.06 (SEQ ID NO: 9) fused to the N-terminus of hFc through a GGG linker (Fc fusion)
chain: GRGEAETRECIYYNANWELERTNQSGLERCEGEQDKRLHCFASWKNSSGTIELVKQGCWLDDFNCYDRQECVAKKDSPEVYFCCCEGNFCNERFTHLPEAGGPEVTYEPPPTAPTGGG
notes: also called ActRIIB 2.06 variant; not shown: hFc
B5: Activin B (ligand, UniProt P09529 293-407, looked up)
chain: GLECDGRTNLCCRQQFFIDFRLIGWNDWIIAPTGYYGNYCEGSCPAYLAGVPGSASSFHTAVVNQYRMRGLNPGTVNSCCIPTKLSTMSMLYFDDEYNIVKRDVPNMIVEECGCA
B6: extracellular ActRIIB variant ActRIIB 2.05 (SEQ ID NO: 8) fused to the N-terminus of hFc through a GGG linker (Fc fusion)
chain: GRGEAETRECIYYNANWELERTNQSGLERCYGDKDKRLHCYASWRNSSGTIELVKKGCWLDDFNCYDRQECVAKKDSPEVYFCCCEGNFCNERFTHLPEAGGPEVTYEPPPTAPTGGG
notes: also called ActRIIB 2.05 variant; not shown: hFc
B7: extracellular ActRIIB variant ActRIIB 2.03 (SEQ ID NO: 6) fused to the N-terminus of hFc through a GGG linker (Fc fusion)
chain: GRGEAETRECIYYNANWELERTNQTGLERCEGEQDKRLHCYASWRNITGTIELVKKGCWLDDFNCYDRQECVAKKDSPEVYFCCCEGNFCNERFTHLPEAGGPEVTYEPPPTAPTGGG
notes: also called ActRIIB 2.03 variant; not shown: hFc
B8: Activin A (ligand, UniProt P08476 311-426, looked up)
chain: GLECDGKVNICCKKQFFVSFKDIGWNDWIIAPSGYHANYCEGECPSHIAGTSGSSLSFHSTVINHYRMRGHSPFANLKSCCVPTKLRPMSMLYYDDGQNIIKKDIQNMIVEECGCS
B9: extracellular ActRIIB variant ActRIIB 2.08 (SEQ ID NO: 11) fused to the N-terminus of hFc through a GGG linker (Fc fusion)
chain: GRGEAETRECIYYNANWELERTNQSGLERCYGDQDKRRHCYASWRNSSGTIELVKKGCWLDDFNCYDRQECVAKKDSPEVYFCCCEGNFCNERFTHLPEAGGPEVTYEPPPTAPTGGG
notes: also called ActRIIB 2.08 variant; not shown: hFc
B10: extracellular ActRIIB variant ActRIIB/A (SEQ ID NO: 2) fused to the N-terminus of hFc through a GGG linker (Fc fusion)
chain: GRGEAETRECIFYNANWEKDRTNQSGLEPCYGDQDKRRHCFASWKNSSGTIELVKQGCWLDDINCYDRQECVAKKDSPEVYFCCCEGNFCNERFTHLPEAGGPEVTYEPPPTAPTGGG
notes: also called ActRIIB/A variant; not shown: hFc
B11: extracellular ActRIIB variant ActRIIB 2.04 (SEQ ID NO: 7) fused to the N-terminus of hFc through a GGG linker (Fc fusion)
chain: GRGEAETRECIYYNANWELERTNQSGLEPCEGEQDKRLHCYASWRNSSGTIELVKKGCWLDDFNCYDRQECVAKKDSPEVYFCCCEGNFCNERFTHLPEAGGPEVTYEPPPTAPTGGG
notes: also called ActRIIB 2.04 variant; not shown: hFc
B12: extracellular ActRIIB variant ActRIIB 2.02 (SEQ ID NO: 5) fused to the N-terminus of hFc through a GGG linker (Fc fusion)
chain: GRGEAETRECIYYNANWELERTNQTGLERCEGEQDKRLHCYASWRNISGTIELVKKGCWLDDFNCYDRQECVAKKDSPEVYFCCCEGNFCNERFTHLPEAGGPEVTYEPPPTAPTGGG
notes: also called ActRIIB 2.02 variant; not shown: hFc
B13: extracellular ActRIIB variant ActRIIBΔ9 (SEQ ID NO: 3) fused to the N-terminus of hFc through a GGG linker (Fc fusion)
chain: GRGEAETRECIYYNANWELDRTNQSGLERCEGEQDKRLHCYASWRNSSGTIELVKKGCWLDDINCYDRQECVATKENPQVYFCCCEGNFCNERFTHLPEAGGPEVTYEPPPTAPTGGG
notes: also called ActRIIBΔ9 variant; not shown: hFc
B14: ActRIIB 2.11 (SEQ ID NO: 14)-Fc (Fc fusion, not shown: a dimerising Fc or GST)
chain: GRGEAETRECLYYNANWELERTNQSGVERCEGEKDKRLHCYASWRNSSGSLEIVKKGCWLDDFNCYDRTDCVATKENPQVYFCCCEGNMCNERFTHLPEAGGPEVTYEPPPTAPT
notes: also called ActRIIB 2.11 variant; ActRIIB 2.11-Fc
B15: ActRIIB 2.12 (SEQ ID NO: 15)-Fc (Fc fusion, not shown: a dimerising Fc or GST)
chain: GRGEAETRECLYYNANWELERTNQSGVERCEGEKDKRLHCYASWRNSSGSLEIVKKGCWLDDFNCYDRDTCVATKENPQVYFCCCEGNMCNERFTHLPEAGGPEVTYEPPPTAPT
notes: also called ActRIIB 2.12 variant; ActRIIB 2.12-Fc
B16: BMP-9 (ligand, UniProt Q9UK05 320-429, looked up)
chain: SAGAGSHCQKTSLRVNFEDIGWDSWIIAPKEYEAYECKGGCFFPLADDVTPTKHAIVQTLVHLKFPTKVGKACCVPTKLSPISVLYKDDMGVPTLKYHYEGMSVAECGCR
notes: also called bone morphogenetic protein 9
B17: extracellular ActRIIB variant ActRIIB 2.09 (SEQ ID NO: 12) fused to the N-terminus of hFc through a GGG linker (Fc fusion)
chain: GRGEAETRECLYYNANWELERTNQSGVERCEGEKDKRLHCYASWRNSSGSLEIVKKGCWLDDFNCYDRTDCVATEENPQVYFCCCEGNMCNERFTHLPEAGGPEVTYEPPPTAPTGGG
notes: also called ActRIIB 2.09 variant; not shown: hFc
B18: extracellular ActRIIB variant ActRIIB 2.10 (SEQ ID NO: 13) fused to the N-terminus of hFc through a GGG linker (Fc fusion)
chain: GRGEAETRECLYYNANWELERTNQSGVERCEGEKDKRLHCYASWRNSSGSLEIVKKGCWLDDFNCYDRDTCVATEENPQVYFCCCEGNMCNERFTHLPEAGGPEVTYEPPPTAPTGGG
notes: also called ActRIIB 2.10 variant; not shown: hFc
B19: growth differentiation factor 11 (GDF11) (ligand, UniProt O95390 299-407, looked up)
chain: NLGLDCDEHSSESRCCRYPLTVDFEAFGWDWIIAPKRYKANYCSGQCEYMFMQKYPHTHLVQQANPRGSAGPCCTPTKMSPINMLYFNDKQQIIYGKIPGMVVDRCGCS

Tests used:
Activin B = molecular target: B5; assay: SPR (Biacore 3000), ActRII-Fc captured by anti-Fc antibody, ligand in solution
Excerpt: (§1) The GE Biacore 3000 was used to measure the kinetics of the interactions between the ActRIIB-Fc variants and the ligands Activin A, Activin B, growth differentiation factor 11 (GDF11), and BMP-9. ActRIIA, ActRIIB, ActRIIB 2.06, ActRIIB 2.11 and ActRIIB 2.12 were recombinant proteins. All other ActRIIB-Fc variants were expressed by transient expression in HEK293 cells and purified from the conditioned media using Protein-A Sepharose chromatography. Flow cells 1-4 were immobilized with anti-human/anti-mouse capture antibodies from GE using the amine coupling kit. The ActRII-Fc proteins were then captured on the chip in flow cells 2-4, with flow cell 1 being left empty as a reference cell to measure and subtract any nonspecific binding. HBS-EP+ buffer from GE Healthcare™ was used as a running buffer. Each ligand was run in a duplicate concentration series at 40 μl/min to avoid mass transport effects. All data was collected on a CM-5 chip except for GDF-11, which used CM-4. The data was analyzed using Scrubber2 by BioLogic™ Software to calculate the KD of each interaction (Table 3).

Activin A = molecular target: B8; assay: as above
Excerpt: as §1

[1] = molecular target: B19; assay: SPR (Biacore 3000), ActRII-Fc captured by anti-Fc antibody, ligand in solution, CM-4 chip
Excerpt: as §1

BMP-9 = molecular target: B16; assay: SPR (Biacore 3000), ActRII-Fc captured by anti-Fc antibody, ligand in solution
Excerpt: as §1

[2] = molecular target: T1, extracellular ActRIIB (SEQ ID NO: 17) fused to the N-terminus of hFc through a GGG linker (human, UniProt Q13705 20-134); assay: as above
T1 construct: also called ActRIIB-Fc; not shown: hFc
T1 sequence: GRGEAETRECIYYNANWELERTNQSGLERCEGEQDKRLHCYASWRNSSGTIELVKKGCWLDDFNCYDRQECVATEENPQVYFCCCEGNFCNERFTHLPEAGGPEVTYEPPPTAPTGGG
Excerpt: as §1

BMP-9, Q9UK05 = molecular target: T2, BMP-9, Q9UK05; assay: as above; details: remark: other sources report otherwise
T2 chain: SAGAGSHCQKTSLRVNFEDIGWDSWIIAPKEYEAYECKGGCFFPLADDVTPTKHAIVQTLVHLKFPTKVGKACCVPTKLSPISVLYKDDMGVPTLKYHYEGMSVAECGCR

[3] = molecular target: B1; assay: as above
Excerpt: as §1

[4] = molecular target: B1; assay: SPR (Biacore 3000), ActRII-Fc captured by anti-Fc antibody, ligand in solution, CM-4 chip
Excerpt: as §1

[5] = molecular target: T1, extracellular ActRIIB (SEQ ID NO: 17) …; assay: as above
Excerpt: as §1

| Binder | Kd (Activin B) [nM] | Kd (Activin A) [nM] | binding result [1] | binding result (Activin B) | binding result (Activin A) | binding result (BMP-9) | Kd (BMP-9) [nM] | other results |
| --- | --- | --- | --- | --- | --- | --- | --- | --- |
| B1 | 0.37 | 1 |  |  |  |  |  |  |
| B2 |  |  | no binding | no binding | no binding | no binding |  |  |
| B3 |  |  | no binding | no binding | no binding | no binding |  |  |
| B4 | 0.1 | 0.053 |  |  |  |  | 0.3 | Kd [1]: 0.027 nM |
| B5 |  |  |  |  |  |  |  | Kd [2]: 0.023 nM |
| B6 |  |  | no binding | no binding | no binding | no binding |  |  |
| B7 |  |  | no binding | no binding | no binding | no binding |  |  |
| B8 |  |  |  |  |  |  |  | Kd [2]: 0.063 nM |
| B9 |  |  | no binding | no binding | no binding | no binding |  |  |
| B10 |  |  | no binding | no binding | no binding |  |  | Kd (BMP-9, Q9UK05): 88 nM |
| B11 |  |  | no binding | no binding | no binding | no binding |  |  |
| B12 |  |  | no binding | no binding | no binding | no binding |  |  |
| B13 | 400 | 390 |  |  |  |  | 28 | Kd [1]: 530 nM |
| B14 | 0.37 | 0.78 |  |  |  |  | 2.7 | Kd [1]: 0.24 nM |
| B15 | 0.16 | 0.14 |  |  |  |  | 31 | Kd [1]: 0.13 nM |
| B16 |  |  |  |  |  |  |  | Kd [3]: 25 nM; Kd [2]: 0.28 nM |
| B17 | 0.16 | 0.1 |  |  |  |  | 0.44 |  |
| B18 | 0.28 | 0.45 |  |  |  |  | 1.7 |  |
| B19 |  |  |  |  |  |  |  | Kd [4]: 0.081 nM; Kd [5]: 0.12 nM |
